Consider 14 molecules from patent publication US9346871B2, “Engineered CXCL12 alpha locked dimer polypeptide” (The Medical College of Wisconsin, priority 2008, dated 2016).

For one series, the target named is T1, CXCL12-α (Homo sapiens, UniProt P48061).
T1 construct: made in house; host or cells: E. coli
In words: Binding of CXCR4 N-terminal p38 peptides to CXCL12-α. The settings on record: read-out: apparent Kd.

In a further series the target is T2, CXCR4 (Homo sapiens, UniProt P61073).
T2 construct: a Ca^2+-flux assay on CXCR4-expressing THP-1 cells; host or cells: THP-1
In words: Ca2+-flux assay of CXCR4 activation in THP-1 cells. The class given is cell-based. An excerpt: (§1) The Protein Data Bank (PDB), under accession numbers 2K01, 2K04, 2K03 and 2K05 contain coordinates for these structural models. Restraints employed for structure determination have been deposited in the Biological Magnetic Resonance Bank, accession numbers 15633, 15636, 15635 and 15637. […] THP-1 cells are a CXCR4-expressing monocyte leukemia cell line and were obtained from ATCC.
The inventors monitored activation of CXCR4 using THP-1 cells and a similar Ca^2+-flux assay.

A further series relates to THP-1 cells. In words: Transwell chemotaxis assay of THP-1 cells. The class given is cell-based.
Description: FIG. 5. […] C) Schematic illustration of the bell-shaped profile for CXCL12-α-mediated chemotaxis arising from changes in relative concentrations of chemokine monomer and dimer.
as §1

The nature of series [1]: Pulsed-field gradient NMR translational diffusion, CXCL12-α monomer-dimer equilibrium. The following applies: 10, 50 and 150 μM protein. It counts as physicochemical. The procedure: FIG. 1. […] The lines connecting the cysteines show where the intra- and intermolecular disulfide bonds are. […] Diffusion coefficients (Ds) of wild-type CXCL12 (black circles) in 20 mM sodium phosphate at pH 7.4 plotted versus chemokine concentration. […] D) N-terminal peptides corresponding to the first thirty-eight amino acids of CXCR4 are illustrated.

A further series concerns HIV-1. The following applies: compared with wild-type chemokine. An excerpt:
Certain strains of HIV (X4 or dual tropic) utilize CXCR4 as a co-receptor, and this interaction is critical for fusion of the viral and T cell membranes in the process of HIV entry.

The next series in a line: Heparin binding. An excerpt: Further, in addition to binding CXCR4, CXCL12 also binds to heparin found in the extracellular matrix on cell surfaces. The inventors have shown that the CXCL12α2 locked dimer of the present invention also binds heparin. Amino acid substitutions in CXCL12, including K24S, K27S, or K24S/K27S can prevent heparin binding and increase the half-life of CXCL12 in vivo; therefore, similar mutations in CXCL12α2 would likely prevent heparin binding and increase the in vivo half-life of the dimer.

[2] abbreviates: Ca2+-flux, CXCR4-expressing THP-1 cells.

Entries after “also recorded” stand apart in the source; their conditions may differ. Where two headings read alike, the source gives them in different places.

T2 sequence (P61073 whole entry): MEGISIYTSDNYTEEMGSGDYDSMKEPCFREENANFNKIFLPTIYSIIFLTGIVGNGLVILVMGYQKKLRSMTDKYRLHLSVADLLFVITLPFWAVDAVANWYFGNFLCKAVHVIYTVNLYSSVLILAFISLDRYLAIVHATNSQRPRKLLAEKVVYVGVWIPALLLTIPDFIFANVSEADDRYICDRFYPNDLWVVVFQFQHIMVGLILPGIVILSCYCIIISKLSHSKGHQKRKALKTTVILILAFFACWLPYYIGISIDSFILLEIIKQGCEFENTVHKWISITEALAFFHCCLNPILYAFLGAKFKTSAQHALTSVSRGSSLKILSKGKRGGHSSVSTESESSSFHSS
T1 sequence (P48061 22-89 limits assumed): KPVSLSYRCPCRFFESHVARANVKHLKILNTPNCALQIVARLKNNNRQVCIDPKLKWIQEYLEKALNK

On to `CC[C@H](C)[C@H](NC(=O)CNC(=O)[C@H](CCC(=O)O)NC(=O)[C@H](CCSC)NC(=O)[C@H](CO)NC(=O)CN)C(=O)N[C@@H](CO)C(=O)N[C@H](C(=O)N[C@@H](Cc1ccc(OS(=O)(=O)O)cc1)C(=O)N[C@H](C(=O)N[C@@H](CO)C(=O)N[C@@H](CC(=O)O)C(=O)N[C@@H](CC(N)=O)C(=O)N[C@@H](Cc1ccc(OS(=O)(=O)O)cc1)C(=O)N[C@H](C(=O)N[C@@H](CCC(=O)O)C(=O)N[C@@H](CCC(=O)O)C(=O)N[C@@H](CCSC)C(=O)NCC(=O)N[C@@H](CO)C(=O)NCC(=O)N[C@@H](CC(=O)O)C(=O)N[C@@H](Cc1ccc(OS(=O)(=O)O)cc1)C(=O)N[C@@H](CC(=O)O)C(=O)N[C@@H](CO)C(=O)N[C@@H](CCSC)C(=O)N[C@@H](CCCCN)C(=O)N[C@@H](CCC(=O)O)C(=O)N1CCC[C@H]1C(=O)N[C@@H](C)C(=O)N[C@@H](Cc1ccccc1)C(=O)N[C@@H](CCCNC(=N)N)C(=O)N[C@@H](CCC(=O)O)C(=O)N[C@@H](CCC(=O)O)C(=O)N[C@@H](CC(N)=O)C(=O)N[C@@H](C)C(=O)N[C@@H](CC(N)=O)C(=O)N[C@@H](Cc1ccccc1)C(=O)N[C@@H](CC(N)=O)C(=O)N[C@@H](CCCCN)C(=O)O)[C@@H](C)O)[C@@H](C)O)[C@@H](C)CC` [p38-sY3], for which the Kd at CXCL12-α worked out at 200 ± 200 nM.
In the case of “CXCL12-α2: covalently locked dimer comprising two CXCL12 L36C/A65C sequences (SEQ ID NO: 1)”, the CXCR4 functional character result with CXCR4 (detection of secondary messenger calcium) is reported as “partial CXCR4 agonist”. In the series with THP-1 cells, the “chemotactic response” value is on record as “failed to attract cells; also recorded: does not chemoattract THP-1 cells”. The “diffusion coefficient Ds” value in series [1] is reported as 1.08-1.09 ×10^−6 cm^2s^−1. Moreover, the “predicted inhibition of HIV-1 entry into human T cells” value in the series with HIV-1 is reported as “more effective at lower concentrations”. Besides, the heparin binding entry in the series “Heparin binding” is “binds heparin”.

B1: R20A: wild-type CXCL12-α with R20 replaced by alanine (protein)
chain: KPVSLSYRCPCRFFESHVAAANVKHLKILNTPNCACQIVARLKNNNRQVCIDPKLKWIQEYLEKCLNK
Regarding B1, in the series with CXCR4 (setting [2]), the response was half-maximal at 4.3 ± 0.6 nM (EC50) and the “EC50, CXCR4 activation” value is on record as “no change in EC50”.

B2: K27E: CXCL12-α mutant, glutamic acid at K27 (protein)
chain: KPVSLSYRCPCRFFESHVARANVKHLEILNTPNCACQIVARLKNNNRQVCIDPKLKWIQEYLEKCLNK
Turning to B2, the response with CXCR4 (setting [2]) was half-maximal at 16.8 nM (EC50).

B3: H25R: dimerization-impaired, preferentially monomeric CXCL12-α variant (protein)
chain: KPVSLSYRCPCRFFESHVARANVKRLKILNTPNCACQIVARLKNNNRQVCIDPKLKWIQEYLEKCLNK
modifications: ends and bridges not checked
notes: dimerization-impaired, preferentially monomeric CXCL12-α variant
The molecule B3 showed an EC50 with CXCR4 (setting [2]) of 5.1 ± 0.9 nM. Moreover, the “chemotactic response” value is reported as “induces chemotaxis over a broader range” in the series on THP-1 cells (listed as CXCL12-α (H25R)) and “promotes cell migration much more strongly than the wild-type chemokine at higher concentrations” with THP-1 cells (listed as CXCL12-α(H25R)).

B4: K64A: CXCL12-α mutant K64A (protein)
chain: KPVSLSYRCPCRFFESHVARANVKHLKILNTPNCACQIVARLKNNNRQVCIDPKLKWIQEYLEACLNK
B4 gave a half-maximal effective concentration (EC50) with CXCR4 (setting [2]) of 5 ± 1.1 nM.

B5: V39A: CXCL12-α mutant V39A (protein)
chain: KPVSLSYRCPCRFFESHVARANVKHLKILNTPNCACQIAARLKNNNRQVCIDPKLKWIQEYLEKCLNK
As for B5, a half-maximal response in the series with CXCR4 (setting [2]) (EC50) required 27.1 nM.

B6: E60A: CXCL12-α mutant E60A (protein)
chain: KPVSLSYRCPCRFFESHVARANVKHLKILNTPNCACQIVARLKNNNRQVCIDPKLKWIQAYLEKCLNK
In the series with CXCR4 (setting [2]), B6 showed a concentration giving a half-maximal response (EC50) of 4.1 ± 0.1 nM.

B7: R41A: CXCL12-α mutant R41A (protein)
chain: KPVSLSYRCPCRFFESHVARANVKHLKILNTPNCACQIVAALKNNNRQVCIDPKLKWIQEYLEKCLNK
Turning to B7, in the series with CXCR4 (setting [2]), the EC50 came out at 4.3 ± 0.9 nM.

B8: R47E: CXCL12-α mutant, arginine 47 replaced by glutamic acid (protein)
chain: KPVSLSYRCPCRFFESHVARANVKHLKILNTPNCACQIVARLKNNNEQVCIDPKLKWIQEYLEKCLNK
B8 registered a 50% effective concentration (EC50) in the series with CXCR4 (setting [2]) of 654 nM.

B9: V49A: CXCL12-α mutant V49A (protein)
chain: KPVSLSYRCPCRFFESHVARANVKHLKILNTPNCACQIVARLKNNNRQACIDPKLKWIQEYLEKCLNK
For B9, the 50% effective concentration (EC50) with CXCR4 (setting [2]) turned out to be 8.6 ± 2.4 nM.

B10: R47A: CXCL12-α mutant R47A (protein)
chain: KPVSLSYRCPCRFFESHVARANVKHLKILNTPNCACQIVARLKNNNAQVCIDPKLKWIQEYLEKCLNK
Turning to B10, the EC50 with CXCR4 (setting [2]) is 14.1 nM. Compared with the last molecule, the EC50 is about 1.6-fold higher.

B11: K27A: CXCL12-α mutant, alanine at K27 (protein)
chain: KPVSLSYRCPCRFFESHVARANVKHLAILNTPNCACQIVARLKNNNRQVCIDPKLKWIQEYLEKCLNK
Consider B11, for which the half-maximal effective concentration (EC50) with CXCR4 (setting [2]) was determined as 10.1 nM.

B12: E63A: CXCL12-α mutant E63A (protein)
chain: KPVSLSYRCPCRFFESHVARANVKHLKILNTPNCACQIVARLKNNNRQVCIDPKLKWIQEYLAKCLNK
As for B12, the concentration for a half-maximal effect (EC50) with CXCR4 (setting [2]) amounted to 3.7 ± 0.8 nM.

By EC50 is commonly meant the concentration that produces a half-maximal response. Read a high EC50 as a need for much substance.
